“Also recorded” adds a separate entry of the source.
Biological target: [2,3-3H]-L-proline-labeled procollagen substrate

B1: chicken prolyl 3-hydroxylase 1 (chicken P3H1) (protein)
chain: AGPPGPLGPPEHSEPPLPAEPPDALFAAGAEAYARGDWPAVVLQMERALRARAAIRARSVRCRLRCANATAVVPTDGLEPTLHDLLFFRGLLRRAACLRGCGPTQPSRYRLGEELEREFRKRSPYNYLQVAYFKINKVAKAVAAAHTFFVANPEHVEMKQNLEYYQMMAGVRESDFADLEARPHMTEFRLGVRFYSEEQPAAAVLHLEKALQEYFVADTECRALCEGPYDYEGYNYLEYNADLFQAMTDHYMQVLSCKQGCVTELASQPGREKPLEDFLPSHFNYLQFAYYNNGNYEKAIECAKTYLLFFPNDEVMNQNLAYYTAVLGEDLARPIEPRKEIQAYRQRSLMEKELLFFSYDVFGIPFVDPDTWTPEEVIPKRLREKQKVERETAARISEEIGNLMKEIETLVEEKAKESAEMSKFIREGGPLVYEGASVTMNSKSLNGSQRVVVDGVLSAEECRELQRLTNAAASAGDGYRGKTSPHTPSETFYGVTVLKALKLGQEGKVPLQSAHLYYNVTEKVRHMMESYFRLEVPLHFSYSHLVCRTAIDEKQEGRSDNSHEVHVDNCILNAEALVCVKEPPAYTFRDYSAILYLNGDFEGGAFYFTELDAKTQTAEVQPQCGRAVGFSSGSENPHGVKAVTKGQRCAIALWFTLDPRHSERERVQADDLVKMLFRTEEVDLLQETSAEQEPTAATSTAGLHAAGKDEL
**Q.** Which “Km; prolyl 3-hydroxylase activity as release of tritiated water (THO), double reciprocal plot” value does the source give for B1 here?
**A.** The value was “a Km of 179 µl of substrate per 2 mls reaction volume; also recorded: or 89.5 µl of substrate per ml”.
